Laboratory results as given in the supplement of paper PMC10126150.
± gives the standard deviation of the averaged measurements.

tested on: ATP; experiment: switch fluorescence ratio, 500 uM ATP over buffer (Cy3 cluster intensity, sum of 5 cycles each) (fold (ratio)); higher = stronger signal-on switching upon ATP binding; sequences stand for … in TCGTCGGCAGCGTCAGATGTGTATAAGAGACAGTTTTTTTTTTTTTTTTTTTTTTTTT…TC; settings: aptamer strand: ATP DNA aptamer (quencher-CACCTGGGGGAGTATTGCGGAGGAAGG + anchor), 100 nM annealed; ATP concentration: 500 uM
Summary of the method: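 Values give the fluorescence ratio for each switch-domain sequence, averaged from per-cluster ratios of summed target-cycle to summed buffer-cycle Cy3 intensity. The Cy3-labelled switching-strand clusters sat on a modified Illumina MiSeq flow-cell, were annealed to 100 nM quencher-labelled ATP aptamer, and were imaged in selection buffer, then after 15 min with 500 uM ATP at 22 °C. Five cycles ran with NaOH stripping and re-annealing between them, and clusters outside 100-1000 RFU were excluded.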
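Note: ATP exposure 15 min at 22 °C before imaging.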

Question: How did the switch fluorescence ratio turn out when CTCTGACGGC was run?
Answer: 1.12 ± 0.12

Question: How did the switch fluorescence ratio turn out when TCCTAAGGGG was run?
Answer: 1.79 ± 1

Question: Which switch fluorescence ratio does the source give for CGATGGTTTT here?
Answer: 1.01 ± 0.044

Question: For ATGTGATGCT, which switch fluorescence ratio is on record?
Answer: 1.012 ± 0.0044

Question: How did the switch fluorescence ratio turn out when GAGAGGGCCT was run?
Answer: 0.985 ± 0.038

Question: With CATTTGGGTA as the sequence, how does the switch fluorescence ratio read?
Answer: 1.01 ± 0.014

Question: Which switch fluorescence ratio does the source give for GGAGAGCATT here?
Answer: 1.039 ± 0.0091

Question: Which switch fluorescence ratio does the source give for TTAGGAGATG here?
Answer: 0.9802 ± 0.0059

Question: With ATCAGATAGG as the sequence, how does the switch fluorescence ratio read?
Answer: 1 ± 0.026

Question: Which switch fluorescence ratio does the source give for ATTTGTTTAT here?
Answer: 1.09 ± 0.17

Question: For TTGGGTCTTC, which switch fluorescence ratio is on record?
Answer: 0.9736 ± 0.0014

Question: Which switch fluorescence ratio does the source give for AATTTGGGCG here?
Answer: 1 ± 0.04

Question: Which switch fluorescence ratio does the source give for AGTTCGGTTT here?
Answer: 0.9581 ± 0.0039

Question: For AGTGCAAGAT, which switch fluorescence ratio is on record?
Answer: 1.08 ± 0.028

Question: For GTATTTGGGT, which switch fluorescence ratio is on record?
Answer: 0.986 ± 0.041

Question: How did the switch fluorescence ratio turn out when AAGTTATGAC was run?
Answer: 1.03 ± 0.029

Question: AGGGTGGGGG was tested. Which switch fluorescence ratio did it give?
Answer: 1.03 ± 0.036

Question: Which switch fluorescence ratio does the source give for AAATTCGGGC here?
Answer: 0.973 ± 0.014

Question: TAATCGTGTG was tested. Which switch fluorescence ratio did it give?
Answer: 0.985 ± 0.067

Question: For ACTCGTGTAG, which switch fluorescence ratio is on record?
Answer: 1.04 ± 0.022

Question: With GAATGTTAGT as the sequence, how does the switch fluorescence ratio read?
Answer: 0.964 ± 0.013

Question: GACAGATCCC was tested. Which switch fluorescence ratio did it give?
Answer: 0.982 ± 0.014

Question: Which switch fluorescence ratio does the source give for ATCAAACGGG here?
Answer: 1.02 ± 0.029

Question: GCTAACTAGG was tested. Which switch fluorescence ratio did it give?
Answer: 1.038 ± 0.0087

Question: With TATATTATGA as the sequence, how does the switch fluorescence ratio read?
Answer: 0.999 ± 0.023

Question: Which switch fluorescence ratio does the source give for GGGGAGGACT here?
Answer: 1 ± 0.021

Question: With GAGGTGCTGA as the sequence, how does the switch fluorescence ratio read?
Answer: 1 ± 0.061

Question: With CATCGGGGTC as the sequence, how does the switch fluorescence ratio read?
Answer: 1.07 ± 0.021

Question: Which switch fluorescence ratio does the source give for CCAGGTATTT here?
Answer: 1.1 ± 0.016

Question: With GCTACCTGGA as the sequence, how does the switch fluorescence ratio read?
Answer: 1.19 ± 0.016

Question: Which switch fluorescence ratio does the source give for GCATATGGTT here?
Answer: 0.988 ± 0.016

Question: With GGGGGATAGC as the sequence, how does the switch fluorescence ratio read?
Answer: 0.991 ± 0.023

Question: With GGGCATAGGT as the sequence, how does the switch fluorescence ratio read?
Answer: 0.982 ± 0.018

Question: How did the switch fluorescence ratio turn out when TACATGGGTG was run?
Answer: 1.01 ± 0.054

Question: How did the switch fluorescence ratio turn out when CCTATATAGA was run?
Answer: 0.999 ± 0.029

Question: CGAAAGTATA was tested. Which switch fluorescence ratio did it give?
Answer: 1.08 ± 0.075

Question: How did the switch fluorescence ratio turn out when TATGTGGCT was run?
Answer: 1.017 ± 0.0043

Question: Which switch fluorescence ratio does the source give for TAGGCTTAGG here?
Answer: 1.029 ± 0.0019

Question: AGGAAGTTAG was tested. Which switch fluorescence ratio did it give?
Answer: 0.961 ± 0.022

Question: With CGTGAAGGGT as the sequence, how does the switch fluorescence ratio read?
Answer: 0.992 ± 0.013

Question: AACGTGTGGG was tested. Which switch fluorescence ratio did it give?
Answer: 0.996 ± 0.1

Question: How did the switch fluorescence ratio turn out when GCTGTGGATG was run?
Answer: 1.02 ± 0.024

Question: With TGAAATGCTA as the sequence, how does the switch fluorescence ratio read?
Answer: 1.036 ± 0.0073

Question: Which switch fluorescence ratio does the source give for GTGATCGTCG here?
Answer: 1.01 ± 0.017

Question: How did the switch fluorescence ratio turn out when TGATCTTTCT was run?
Answer: 1.01 ± 0.059

Question: AAAAGTCGCT was tested. Which switch fluorescence ratio did it give?
Answer: 1.03 ± 0.025

Question: AGAATGATTG was tested. Which switch fluorescence ratio did it give?
Answer: 0.988 ± 0.017

Question: Which switch fluorescence ratio does the source give for TAAATTTATA here?
Answer: 0.992 ± 0.021

Question: How did the switch fluorescence ratio turn out when TTTTTAAACG was run?
Answer: 0.995 ± 0.014

Question: GCAGGAAGGC was tested. Which switch fluorescence ratio did it give?
Answer: 1.089 ± 0.0071

Question: For TGTCGTGACA, which switch fluorescence ratio is on record?
Answer: 1.006 ± 0.0038

Question: With CTGATAAGCG as the sequence, how does the switch fluorescence ratio read?
Answer: 0.991 ± 0.039

Question: Which switch fluorescence ratio does the source give for AAGCGGCTCG here?
Answer: 0.996 ± 0.03

Question: GCGGGTTAAA was tested. Which switch fluorescence ratio did it give?
Answer: 0.991 ± 0.012

Question: How did the switch fluorescence ratio turn out when GAAGGGGGAC was run?
Answer: 1.01 ± 0.046

Question: Which switch fluorescence ratio does the source give for CAGCGGGACC here?
Answer: 1.03 ± 0.025

Question: With GGCTTATTGG as the sequence, how does the switch fluorescence ratio read?
Answer: 0.969 ± 0.016

Question: For AAGTTCGATG, which switch fluorescence ratio is on record?
Answer: 0.976 ± 0.025

Question: How did the switch fluorescence ratio turn out when GGTACAGAAT was run?
Answer: 0.9997 ± 0.0012

Question: GGATCGGGGG was tested. Which switch fluorescence ratio did it give?
Answer: 1.03 ± 0.05

Question: How did the switch fluorescence ratio turn out when AGGGGGCGCG was run?
Answer: 1.01 ± 0.048

Question: With TTGCTTCGTT as the sequence, how does the switch fluorescence ratio read?
Answer: 1.02 ± 0.029

Question: Which switch fluorescence ratio does the source give for GCTGGTGATC here?
Answer: 1.02 ± 0.012

Question: For GGCAACAGCG, which switch fluorescence ratio is on record?
Answer: 1.039 ± 0.003

Question: How did the switch fluorescence ratio turn out when GAGGTTTGGG was run?
Answer: 0.982 ± 0.035

Question: How did the switch fluorescence ratio turn out when CCAATGGCAG was run?
Answer: 1.155 ± 0.0045

Question: How did the switch fluorescence ratio turn out when TTTTTTTTGA was run?
Answer: 0.998 ± 0.017

Question: Which switch fluorescence ratio does the source give for TATTGCTTCT here?
Answer: 0.9913 ± 0.0021

Question: ATGCGAAGGT was tested. Which switch fluorescence ratio did it give?
Answer: 1.04 ± 0.037

Question: Which switch fluorescence ratio does the source give for AGGGCTTTCT here?
Answer: 0.97 ± 0.023

Question: Which switch fluorescence ratio does the source give for AGGCGGGCGA here?
Answer: 1.02 ± 0.05

Question: How did the switch fluorescence ratio turn out when TGGCCTTATT was run?
Answer: 0.992 ± 0.011

Question: TTTCAAAAAC was tested. Which switch fluorescence ratio did it give?
Answer: 1.03 ± 0.037

Question: How did the switch fluorescence ratio turn out when TAAAAATAGC was run?
Answer: 1.024 ± 0.0095

Question: ACTCGACAGG was tested. Which switch fluorescence ratio did it give?
Answer: 1.8 ± 0.013

Question: How did the switch fluorescence ratio turn out when CAAGTAGCGA was run?
Answer: 1.088 ± 0.0072

Question: GGTGAGGCAA was tested. Which switch fluorescence ratio did it give?
Answer: 1.19 ± 0.12

Question: Which switch fluorescence ratio does the source give for CTTTTAGGCT here?
Answer: 1.02 ± 0.092

Question: For ATTTGATTCA, which switch fluorescence ratio is on record?
Answer: 0.997 ± 0.012

Question: Which switch fluorescence ratio does the source give for TGGGGAAACG here?
Answer: 0.9455 ± 0.0068

Question: Which switch fluorescence ratio does the source give for TTGTAGCTTT here?
Answer: 1.12 ± 0.089

Question: For GTGTTAGATC, which switch fluorescence ratio is on record?
Answer: 0.98 ± 0.017

Question: AATTAGCAAG was tested. Which switch fluorescence ratio did it give?
Answer: 1.04 ± 0.018

Question: TGGATACCCT was tested. Which switch fluorescence ratio did it give?
Answer: 1.0117 ± 0.00031

Question: Which switch fluorescence ratio does the source give for AGATAGAGTA here?
Answer: 1.006 ± 0.0033

Question: How did the switch fluorescence ratio turn out when GACCGGGCTT was run?
Answer: 0.9753 ± 0.0038

Question: With ACGCCGCGTT as the sequence, how does the switch fluorescence ratio read?
Answer: 1.42 ± 0.032

Question: For ATGGGTGAGT, which switch fluorescence ratio is on record?
Answer: 1.002 ± 0.0086

Question: How did the switch fluorescence ratio turn out when TATCGCTGGT was run?
Answer: 1.04 ± 0.023

Question: How did the switch fluorescence ratio turn out when CGAGTTCGGC was run?
Answer: 0.976 ± 0.06

Question: For ATCGGGTAA, which switch fluorescence ratio is on record?
Answer: 0.9965 ± 0.0029

Question: Which switch fluorescence ratio does the source give for TTTTAATTGG here?
Answer: 1.01 ± 0.066

Question: TTCGCCGGCC was tested. Which switch fluorescence ratio did it give?
Answer: 1.26 ± 0.34

Question: How did the switch fluorescence ratio turn out when CGAGCAGAGT was run?
Answer: 1.13 ± 0.021

Question: With TCTTGTAACT as the sequence, how does the switch fluorescence ratio read?
Answer: 1.01 ± 0.017

Question: Which switch fluorescence ratio does the source give for GGTGGCCCAA here?
Answer: 1.001 ± 0.0059

Question: How did the switch fluorescence ratio turn out when CCAGGGTATC was run?
Answer: 1.064 ± 0.0063

Question: With ATCGTATGGA as the sequence, how does the switch fluorescence ratio read?
Answer: 0.998 ± 0.013

Question: Which switch fluorescence ratio does the source give for AGCTTTCTAT here?
Answer: 0.976 ± 0.011

Question: With TAGGATTTTG as the sequence, how does the switch fluorescence ratio read?
Answer: 0.985 ± 0.033
